# ± gives the uncertainty stated by the source.
# Test: self-splicing fitness, log relative to wild type (ln ratio); higher = more splicing; Tetrahymena group I intron in knt gene, E. coli kanamycin selection, DiMSum; sequences stand for … in CUCUCU…GGAGGGAAAAGUUAUCAGGCAUGCACCUGGUAGCUAGUCUUUAAACCAAUAGAUUGCAUCGGUUUAAAAGGCAAGACCGUCAAAUUGCGGGAAAGGGGUCAACAGCCGUUCAGUACCAAGUCUCAGGGGAAACUUUGAGAUGGCCUUGCAAAGGGUAUGGUAAUAAGCUGACGGACAUGGUCCUAACCACGCAGCCAAGUCCUAAGUCAACAGAUCUUCUGUUGAUAUGGAUGCAGUUCACAGACUAAAUGUCGGUCGGGGAAGAUGUAUUCUUCUCAUAAGAUAUAGUCGGACCUCUCCUUAAUGGGAGCUAGCGGAUGAAGUGAUGCAACACUGGAGCCGCUGGGAACUAAUUUGUAUGCGAAAGUAUAUUGAUUAGUUUUGGAGUACUCGUGGUCG
# Outline: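 DiMSum derived fitness as the error-weighted combination of fold changes across replicates, kanamycin versus no kanamycin, normalised to wild type. E. coli BL21(DE3) held the library, which randomised all eight P1ex-region intron nucleotides within the knt kanamycin-resistance gene on pET-22b(+). Six replicate transformations grew overnight at 37°C or 30°C on LB agar with or without 25 μg/mL kanamycin, also containing 100 μg/mL carbenicillin, 50 μM IPTG and 0.2% rhamnose, and pooled colonies were amplicon-sequenced on an Illumina HiSeq 2500.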
Sequence,self-splicing fitness (ln) (30 °C),self-splicing fitness (ln) (37 °C)
AAGUAGCAAUAUUACGGGUC,-3.44 ± 0.16,-2.84 ± 0.19
CCCUAGCAAUAUUACGAUGG,-3.91 ± 0.2,-1.79 ± 0.15
UUAAAGCAAUAUUACGUAGA,-1.55 ± 0.099,-0.654 ± 0.12
GAUUAGCAAUAUUACGCGCG,-1.03 ± 0.097,-0.745 ± 0.12
CCAGAGCAAUAUUACGUGGG,-3.73 ± 0.27,-2.29 ± 0.18
UCGCAGCAAUAUUACGGGUC,–,-2.14 ± 0.23
AAUUAGCAAUAUUACGCUAA,-2.5 ± 0.28,-2.27 ± 0.24
CAUGAGCAAUAUUACGACGG,-0.356 ± 0.12,-0.199 ± 0.17
AUCGAGCAAUAUUACGGUCG,-2.73 ± 0.38,–
UCGUAGCAAUAUUACGCCGG,-0.692 ± 0.13,-2.41 ± 0.28
AGCCAGCAAUAUUACGGGCA,-1.78 ± 0.14,-0.459 ± 0.13
AAACAGCAAUAUUACGACCU,-0.0846 ± 0.062,-0.604 ± 0.076
CAAGAGCAAUAUUACGGAGU,-3.12 ± 0.18,-2.55 ± 0.22
GUCAAGCAAUAUUACGCUGA,-5.3 ± 0.45,-3.74 ± 0.42
AAGGAGCAAUAUUACGAAGU,-3.53 ± 0.43,-2.57 ± 0.36
GACUAGCAAUAUUACGACCC,0.42 ± 0.14,0.392 ± 0.18
GCCUAGCAAUAUUACGCGCC,-2.42 ± 0.34,-1.39 ± 0.31
AUCGAGCAAUAUUACGGGAC,-2.89 ± 0.27,-1.11 ± 0.19
GAGCAGCAAUAUUACGAGUA,-2.42 ± 0.34,-1.92 ± 0.26
UGUCAGCAAUAUUACGUCAA,-0.787 ± 0.077,-0.0175 ± 0.076
AAGGAGCAAUAUUACGCCGU,-1.14 ± 0.27,-1.16 ± 0.37
UGGUAGCAAUAUUACGUGCC,-1.42 ± 0.21,-2.45 ± 0.39
CCCCAGCAAUAUUACGACGG,-3.1 ± 0.17,-3.42 ± 0.3
AGUUAGCAAUAUUACGGCGA,0.115 ± 0.16,0.709 ± 0.16
AUUUAGCAAUAUUACGUACC,-0.819 ± 0.45,-1.04 ± 0.31
ACGAAGCAAUAUUACGGCCC,-1.25 ± 0.2,0.0496 ± 0.26
ACGCAGCAAUAUUACGAAAU,-2.55 ± 0.13,-1.7 ± 0.15

Sequence,self-splicing fitness (ln) (30 °C),self-splicing fitness (ln) (37 °C)
AGAGAGCAAUAUUACGACUG,-2.3 ± 0.2,–
CUCUAGCAAUAUUACGCAUC,–,-2.64 ± 0.36
GGAGAGCAAUAUUACGUGCC,–,-2.38 ± 0.42
UGUCAGCAAUAUUACGGCGA,-0.34 ± 0.093,-0.0234 ± 0.1
AUGGAGCAAUAUUACGCGUA,-2.62 ± 0.44,-2.09 ± 0.31
UGGAAGCAAUAUUACGUCAG,-0.777 ± 0.12,-0.119 ± 0.16
AGUUAGCAAUAUUACGGUAA,-2.21 ± 0.17,-1.53 ± 0.12
AUUUAGCAAUAUUACGGCUU,-0.173 ± 0.12,0.0373 ± 0.15
UCUCAGCAAUAUUACGGUUA,-0.801 ± 0.083,-0.239 ± 0.091
CGAGAGCAAUAUUACGUACA,-1.64 ± 0.27,-1.71 ± 0.42
GAAGAGCAAUAUUACGGAUA,-2.15 ± 0.22,-2.85 ± 0.43
AUACAGCAAUAUUACGUGCG,-0.886 ± 0.081,-0.3 ± 0.091
CGCUAGCAAUAUUACGGGUU,-2.73 ± 0.082,-2.04 ± 0.11
CGUGAGCAAUAUUACGGAAC,–,-1.28 ± 0.44
UUGCAGCAAUAUUACGGAGU,-4.51 ± 0.42,-2.44 ± 0.2
AUAAAGCAAUAUUACGUCUU,0.183 ± 0.05,0.29 ± 0.073
GCGCAGCAAUAUUACGAGGG,-2.78 ± 0.09,-1.84 ± 0.098
AGGAAGCAAUAUUACGGUUU,-2.13 ± 0.085,-0.557 ± 0.1
UUUCAGCAAUAUUACGUUGG,-4.07 ± 0.18,-2.52 ± 0.2
GAUAAGCAAUAUUACGGCAA,-0.963 ± 0.14,-0.998 ± 0.16
GGAGAGCAAUAUUACGUGAG,-3.33 ± 0.23,-1.56 ± 0.2
CGACAGCAAUAUUACGGCAG,-0.376 ± 0.083,0.289 ± 0.094
GAAUAGCAAUAUUACGACAA,-0.386 ± 0.13,-0.329 ± 0.13
CAGCAGCAAUAUUACGUAAC,-4.17 ± 0.39,-2.88 ± 0.32
GACGAGCAAUAUUACGUGCG,-2.7 ± 0.17,-0.259 ± 0.11
CGGAAGCAAUAUUACGCAGG,-1.73 ± 0.095,-1.57 ± 0.11
AAGAAGCAAUAUUACGCAAA,-2.71 ± 0.24,-0.539 ± 0.16

Sequence,self-splicing fitness (ln) (30 °C),self-splicing fitness (ln) (37 °C)
CGCCAGCAAUAUUACGGGAC,–,-2.48 ± 0.24
CAACAGCAAUAUUACGAGGA,-3.65 ± 0.25,-0.828 ± 0.1
CCUAAGCAAUAUUACGCGUA,-1.88 ± 0.25,-2.19 ± 0.33
GGUAAGCAAUAUUACGUGCU,-2.24 ± 0.18,-1.36 ± 0.2
AGUUAGCAAUAUUACGCGAG,-2.52 ± 0.22,-1.52 ± 0.21
AGAUAGCAAUAUUACGAGUC,-2.64 ± 0.18,-2.14 ± 0.21
UUUCAGCAAUAUUACGUUUG,-1.91 ± 0.086,-1.12 ± 0.1
CGGCAGCAAUAUUACGUUUG,-1.58 ± 0.069,-0.243 ± 0.079
AUCUAGCAAUAUUACGUUAG,-3.26 ± 0.19,-2.67 ± 0.24
GGUAAGCAAUAUUACGAGCA,-0.801 ± 0.093,-0.377 ± 0.12
CCCGAGCAAUAUUACGGACU,-2.57 ± 0.11,-2.19 ± 0.2
CACCAGCAAUAUUACGCACG,-0.655 ± 0.045,0.0962 ± 0.062
GUACAGCAAUAUUACGCGAG,-1.73 ± 0.094,-1.85 ± 0.12
AACCAGCAAUAUUACGGUCA,-0.301 ± 0.045,0.0924 ± 0.062
CCUUAGCAAUAUUACGCCGA,-2.16 ± 0.35,-1.98 ± 0.46
GCCGAGCAAUAUUACGAGGC,-3.23 ± 0.35,-2.3 ± 0.37
UCGGAGCAAUAUUACGGCAU,-2.73 ± 0.21,-1.97 ± 0.37
ACAGAGCAAUAUUACGGGCC,-1.79 ± 0.29,–
UUUGAGCAAUAUUACGUUCG,-4.2 ± 0.42,-1.18 ± 0.19
GAAUAGCAAUAUUACGAACC,0.0666 ± 0.21,0.816 ± 0.24
GGGGAGCAAUAUUACGCCGA,-2.05 ± 0.5,–
UGGCAGCAAUAUUACGGACC,-2.02 ± 0.33,-0.716 ± 0.24
CUGGAGCAAUAUUACGCGAU,-2.76 ± 0.16,-1.9 ± 0.15
CAGAAGCAAUAUUACGAAUG,-2.6 ± 0.14,-0.683 ± 0.13
GAGGAGCAAUAUUACGAACG,-2.65 ± 0.22,-1.54 ± 0.25

# From the supplement of paper PMC7877785
